Publication PMC4122979, “The N-terminal portion of autoinhibitory element modulates human endothelial nitric-oxide synthase activity through coordinated controls of phosphorylation at Thr^495 and Ser^1177” (Bioscience Reports, 2014)

Target: CaM (calmodulin) (UniProt P0DP23)
Test: CaM mobility shift on non-denaturing PAGE
Settings: reference: unmodified T495 peptide; sites T495

eNOS (endothelial nitric-oxide synthase; heNOS) CaM-binding domain (CBD), 491-510 (from UniProt P29474) pT495 peptide
binding against the reference: weaker
